Our source for the Kd values is article PMC8567202, “Phosphoinositide-binding activity of Smad2 is essential for its function in TGF-β signaling” (The Journal of Biological Chemistry, 2021).

Settings in all cases: both partners purified
One test concerns the target T1, Smad2-Y426A (UniProt Q62432 1-467, Y426A).
T1 construct: Smad2, full length, point mutant Y426A; source: E. coli BL21 RIL codon plus, purified (Ni-NTA)
Put plainly: fluorescence polarisation; fluorescence anisotropy; F-Ahx-labelled peptide fixed (2.5 μM in the methods, 2.5 nM in the legend), Smad2 WT or mutant varied (0-250 μM in the methods, 0-150 μM in the legend); 20 mM Tris pH 7.9, 160 mM NaCl; 10 min incubation. For orientation: Polarisation of emitted light reports the rotation of a fluorescent probe.

A further test deals with T2, Smad2-K420A (UniProt Q62432 1-467, K420A).
T2 construct: Smad2, full length, point mutant K420A; source: E. coli BL21 RIL codon plus, purified (Ni-NTA)
The description is as above.

The target in another test is T3, Smad2-W422A (UniProt Q62432 1-467, W422A).
T3 construct: Smad2, full length, point mutant W422A; source: E. coli BL21 RIL codon plus, purified (Ni-NTA)
The test is described as above.

Test [1] addresses T4, Smad2 wild type, full length (UniProt Q62432 1-467).
T4 construct: Smad2, full length (FL), bacterially expressed from pET-30a; also called Smad2 WT; Smad2-FL; source: E. coli BL21 RIL codon plus, purified (Ni-NTA)
The test is described as above.

The target in the next test is T5, Smad2-E425K (UniProt Q62432 1-467, E425K).
T5 construct: Smad2, full length, charge-reversal point mutant E425K; source: E. coli BL21 RIL codon plus, purified (Ni-NTA)
The description is as above.

A further test addresses T6, Smad2-R427A/R428A (UniProt Q62432 1-467, R427A | R428A).
T6 construct: Smad2, full length, double mutant R427A/R428A; also called RR/AA; source: E. coli BL21 RIL codon plus, purified (Ni-NTA)
Described as above.

Test [2] deals with T4, Smad2 wild type, full length. Put plainly: fluorescence polarisation; fluorescence anisotropy as a1, in the presence of 50 μM POPC/POPS/PI(4,5)P2 (77:20:3) LUVs.
For test [3] the target is unchanged. Put plainly: fluorescence polarisation; fluorescence anisotropy; F-Ahx-labelled peptide fixed (2.5 μM in the methods, 2.5 nM in the legend), Smad2 WT or mutant varied (0-250 μM in the methods, 0-150 μM in the legend); 20 mM Tris pH 7.9, 160 mM NaCl; 10 min incubation. This is another data set of the same source.

Square brackets hold non-standard residues; d marks the D form. Ends that are not written are not given here. fluorescein = fluorescein-6-aminohexanoyl (F-Ahx); pS = N[C@@H](COP(=O)(O)O)C(=O)O; Ahx = NCCCCCC(=O)O

T4 sequence (Q62432 whole entry): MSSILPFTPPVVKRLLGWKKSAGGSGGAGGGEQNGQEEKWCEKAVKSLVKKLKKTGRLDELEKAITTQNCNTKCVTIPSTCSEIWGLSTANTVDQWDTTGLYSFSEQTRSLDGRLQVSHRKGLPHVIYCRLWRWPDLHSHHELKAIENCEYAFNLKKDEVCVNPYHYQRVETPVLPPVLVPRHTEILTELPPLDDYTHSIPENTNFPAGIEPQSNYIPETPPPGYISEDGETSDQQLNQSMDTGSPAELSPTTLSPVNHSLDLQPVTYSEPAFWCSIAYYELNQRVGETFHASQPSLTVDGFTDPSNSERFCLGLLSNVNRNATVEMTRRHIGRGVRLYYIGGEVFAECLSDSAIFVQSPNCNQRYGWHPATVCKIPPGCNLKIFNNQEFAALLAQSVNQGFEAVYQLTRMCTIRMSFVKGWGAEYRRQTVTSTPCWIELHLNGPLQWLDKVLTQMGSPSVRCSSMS
T6 sequence (Q62432 whole entry R427A/R428A): as the sequence (Q62432 whole entry) above, with R427A, R428A counted along it
T5 sequence (Q62432 whole entry E425K): as the sequence (Q62432 whole entry) above, with E425K counted along it
T2 sequence (Q62432 whole entry K420A): as the sequence (Q62432 whole entry) above, with K420A counted along it
T3 sequence (Q62432 whole entry W422A): as the sequence (Q62432 whole entry) above, with W422A counted along it
T1 sequence (Q62432 whole entry Y426A): as the sequence (Q62432 whole entry) above, with Y426A counted along it

B1: TβRI GS region peptide (F-Ahx-YDMTTpSGpSGpSGLPLL) (peptide)
peptide: {fluorescein-Ahx}-YDMTT[pS]G[pS]G[pS]GLPLL
notes: type I TGF-β receptor (TβRI), GS region, triply phosphorylated; also called GS peptide; TβRI peptide; source: synthetic peptide; bought: AlanScientific
For the molecule B1, the Kd (in general, a measure of binding affinity in units of concentration) in the test with Smad2-Y426A was 20 µM; with Smad2-K420A it was 200 µM; in the test with Smad2-W422A, 21 µM; in test [1] it was 20 µM; in the test with Smad2-E425K it was 8 µM; in the test with Smad2-R427A/R428A it was 44 µM. Besides, the Kd in test [2] came out at 0.06 ± 0.007 µM; in test [3], 0.02 ± 0.006 µM.

B2: TβRI L45 loop region peptide (F-Ahx-ADNKDNGT) (peptide)
peptide: {fluorescein-Ahx}-ADNKDNGT
notes: type I TGF-β receptor (TβRI), L45 loop; also called L45 peptide; L45 loop peptide; source: synthetic peptide; bought: AlanScientific
For B2, the Kd in the test with Smad2-Y426A was 70 µM; in the test with Smad2-K420A, 100 µM; with Smad2-W422A it was 67 µM; in test [1], 66 µM; in the test with Smad2-E425K, 55 µM; with Smad2-R427A/R428A, 75 µM.
